The results in this text go back to patent publication US11957763B2, “Sulfamide linkers for use in bioconjugates” (SYNAFFIX B.V., priority 2016, dated 2024).

Holding throughout (format): biochemical
One series deals with glycans on glycoproteins. Briefly: pH at which the endoglycosidase activity operates. An excerpt:
Trimming of glycoproteins is known in the art, from e.g. WO 2007/133855 or WO 2014/065661.

For the next series, the system named is Trastuzumab. Kind of series: Trimming of trastuzumab by EndoSH. The conditions noted are these: 0.1 w/w % EndoSH, 37° C., after 1 hour, 25 mM Tris buffer pH 8, MS analysis. Here is the method:
Trastuzumab (obtained from Epirus biopharma (Utrecht, The Netherlands)) in 25 mM Tris buffer pH 8), (14 mg/mL) was trimmed using a concentration of either 0.1 or 1 w/w % EndoSH. The reactions, 350 μg trastuzumab (25 μL) and the appropriate amount of EndoSH, were stirred at 37° C. and analyzed by MS analysis overtime, 1 to 3 hours. Samples were subjected to Fabricator treatment prior to analysis.
(§1) Prior to mass spectral analysis, IgGs were either treated with DTT, which allows analysis of both light and heavy chain, or treated with Fabricator™ (commercially available from Genovis, Lund, Sweden), which allows analysis of the Fc/2 fragment. For analysis of both light and heavy chain, a solution of 20 μg (modified) IgG was incubated for 5 minutes at 37° C. with 100 mM DTT in a total volume of 4 μL. If present, azide-functionalities are reduced to amines under these conditions. For analysis of the Fc/2 fragment, a solution of 20 μg (modified) IgG was incubated for 1 hour at 37° C. with Fabricator™ (1.25 U/μL) in phosphate-buffered saline (PBS) pH 6.6 in a total volume of 10 μL. After reduction or Fabricator-digestion the samples were washed trice with milliQ using an Amicon Ultra-0.5, Ultracel-10 Membrane (Millipore) resulting in a final sample volume of approximately 40 μL. Next, the samples were analyzed by electrospray ionization time-of-flight (ESI-TOF) on a JEOL AccuTOF. […]

In series [1] the test system is Trastuzumab having high-mannose glycans. Briefly: Trimming of high-mannose trastuzumab by fusion protein EndoSH. The following applies: 1 w/w % EndoSH, 37° C., after 3 hours, 25 mM Tris buffer pH 8, MS analysis. As for the experimental part:
Trastuzumab having high-mannose glycans (obtained via transient expression in CHO K1 cells in the presence of kifunensine performed by Evitria (Zurich, Switzerland)) (14 mg/mL) in 25 mM Tris buffer pH 8, was trimmed using a concentration of either 0.1 or 1 w/w % EndoSH. The reactions, 350 μg high-mannose trastuzumab (25 μL) and the appropriate amount of EndoSH, were stirred at 37° C. and analyzed by MS analysis over time, 1-3 hours. Samples were subjected to Fabricator treatment prior to analysis.
as §1, with “After reduction or Fabricator-digestion the samples were washed trice with milliQ using an Amicon Ultra-0.5, Ultracel-10 Membrane (Millipore) resulting in a final sample volume of approximately 40 μL.” left out

B1: EndoSH: fusion enzyme of endoglycosidases EndoS and EndoH connected via a -(G4S)3-(His)6-(G4S)3- linker, SEQ ID NO: 1 (protein)
chain: MPSIDSLHYLSENSKKEFKEELSKAGQESQKVKEILAKAQQADKQAQELAKMKIPEKIPMKPLHGPLYGGYFRTWHDKTSDPTEKDKVNSMGELPKEVDLAFIFHDWTKDYSLFWKELATKHVPKLNKQGTRVIRTIPWRFLAGGDNSGIAEDTSKYPNTPEGNKALAKAIVDEYVYKYNLDGLDVDVEHDSIPKVDKKEDTAGVERSIQVFEEIGKLIGPKGVDKSRLFIMDSTYMADKNPLIERGAPYINLLLVQVYGSQGEKGGWEPVSNRPEKTMEERWQGYSKYIRPEQYMIGFSFYEENAQEGNLWYDINSRKDEDKANGINTDITGTRAERYARWQPKTGGVKGGIFSYAIDRDGVAHQPKKYAKQKEFKDATDNIFHSDYSVSKALKTVMLKDKSYDLIDEKDFPDKALREAVMAQVGTRKGDLERFNGTLRLDNPAIQSLEGLNKFKKLAQLDLIGLSRITKLDRSVLPANMKPGKDTLETVLETYKKDNKEEPATIPPVSLKVSGLTGLKELDLSGFDRETLAGLDAATLTSLEKVDISGNKLDLAPGTENRQIFDTMLSTISNHVGSNEQTVKFDKQKPTGHYPDTYGKTSLRLPVANEKVDLQSQLLFGTVTNQGTLINSEADYKAYQNHKIAGRSFVDSNYHYNNFKVSYENYTVKVTDSTLGTTTDKTLATDKEETYKVDFFSPADKTKAVHTAKVIVGDEKTMMVNLAEGATVIGGSADPVNARKVFDGQLGSETDNISLGWDSKQSIIFKLKEDGLIKHWRFFNDSARNPETTNKPIQEASLQIFNIKDYNLDNLLENPNKFDDEKYWITVDTYSAQGERATAFSNTLNNITSKYWRVVFDTKGDRYSSPVVPELQILGYPLPNADTIMKTVTTAKELSQQKDKFSQKMLDELKIKEMALETSLNSKIFDVTAINANAGVLKDCIEKRQLLKKGGGGSGGGGSGGGGSHHHHHHEFGGGGSGGGGSGGGGSAPAPVKQGPTSVAYVEVNNNSMLNVGKYTLADGGGNAFDVAVIFAANINYDTGTKTAYLHFNENVQRVLDNAVTQIRPLQQQGIKVLLSVLGNHQGAGFANFPSQQAASAFAKQLSDAVAKYGLDGVDFDDEYAEYGNNGTAQPNDSSFVHLVTALRANMPDKIISLYNIGPAASRLSYGGVDVSDKFDYAWNPYYGTWQVPGIALPKAQLSPAAVEIGRTSRSTVADLARRTVDEGYGVYLTYNLDGGDRTADVSAFTRELYGSEAVRTP
modifications: Fusion protein EndoSH
As for B1, the “pH at which both activities (EndoS and EndoH) of the fusion enzyme function smoothly” value in the series with glycans on glycoproteins is recorded as 7-8. Further, the “conversion to the trimmed product, trimmed to the core GlcNAc sugar residue” value (with Trastuzumab; in series [1]) was “Full conversions” in each case.
